From US20240317834A1, “COMPOSITIONS AND METHODS FOR NEUROLOGICAL DISEASES” (CODA BIOTHERAPEUTICS, INC., priority 2020, published 2024)

Test system: Lenti-X 293T cells
Assay: YFP fluorescence quenching anion reporter plate reader assay of engineered receptors stimulated with acetylcholine or a non-native ligand
Assay type: cell-based
In short: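 YFP quench was followed for about 1 min 43 s after ligand delivered in iodide-based ECS, pH 7.2. Values are end-of-read fluorescence (last 10 s) divided by the pre-ligand baseline (15 s). Cells were LX293T, transfected with receptor DNA a day before the assay.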

B1: CODA534: engineered chimeric LGIC receptor, L131S, S172D in SEQ ID NO: 33 (protein)
chain: MRCSPGGVWLALAASLLHVSLQGEFQRKLYKELVKNYNPLERPVANDSQPLTVYFSLSLLQIMDVDEKNQVLTTNIWLQMSWTDHYLQWNVSEYPGVKTVRFPDGQIWKPDILLYNSADERFDATFHTNVSVNSSGHCQYLPPGIFKSSCPMDLKNFPMDVQTCKLKFGSWDYGGWSLDLQMQEADISGYIPNGEWDLVGIPGKRSERFYECCKEPYPDVTFTVTMRRRMGYYLIQMYIPSLLIVILSWISFWINMDAAPARVGLGITTVLTMTTQSSGSRASLPKVSYVKAIDIWMAVCLLFVFSALLEYAAVNFVSRQHKELLRFRRKRRHHKSPMLNLFQEDEAGEGRFNFSAYGMGPACLQAKDGISVKGANNSNTTNPPPAPSKSPEEMRKLFIQRAKKIDKISRIGFPMAFLIFNMFYWIIYKIVRREDVHNQ
modifications: synthetic sequence of chimeric LGIC
- YFP fluorescence quenching using CNL001 (1 nM CNL001, first column): 23.438%
- YFP fluorescence quenching using CNL001 (1 nM CNL001, second column): 28.59%
- YFP fluorescence quenching using TC-5619/Bradanicline (1 nM brd): −1.13%
- YFP fluorescence quenching using TC-5619/Bradanicline (3 nM brd): −3.83%
- YFP fluorescence quenching using CNL001 (10 nM CNL001, first column): 56.882%
- YFP fluorescence quenching using CNL001 (10 nM CNL001, second column): 56.777%
- YFP fluorescence quenching using TC-5619/Bradanicline (10 nM brd): −3.78%
- YFP fluorescence quenching using Facinicline (30 nM fac): −23.44
- YFP fluorescence quenching using CNL001 (50 nM CNL001, first column): 65.044%
- YFP fluorescence quenching using CNL001 (50 nM CNL001, second column): 67.373%
- YFP fluorescence quenching using ABT-126 (50 nM abt): −11.96%
- YFP fluorescence quenching using CNL001 (100 nM CNL001, first column): 68.666%
- YFP fluorescence quenching using CNL001 (100 nM CNL001, second column): 70.357%
- YFP fluorescence quenching using CNL002 (100 nM CNL002): 14.26%
- YFP fluorescence quenching using ABT-126 (100 nM abt): −10.72%
- YFP fluorescence quenching using AZD-0328 (100 nM azd0328): −9.32%
- YFP fluorescence quenching using TC-5619/Bradanicline (100 nM brd): −2.03%
- YFP fluorescence quenching using ABT-126 (300 nM abt): 11.65%
- YFP fluorescence quenching using AZD-0328 (300 nM azd0328): 4.94%
- YFP fluorescence quenching using Facinicline (300 nM fac): 2.75
- YFP fluorescence quenching using CNL001 (1 uM CNL001, first column): 73.019%
- YFP fluorescence quenching using CNL001 (1 uM CNL001, second column): 73.527%
- YFP fluorescence quenching using CNL002 (1 uM CNL002): 45.55%
- YFP fluorescence quenching using ABT-126 (1 uM abt): −3.06%
- YFP fluorescence quenching using TC-5619/Bradanicline (1 uM brd): 1.68%
- YFP fluorescence quenching using TC-6987 (1 uM tc6987): −20.99
- YFP fluorescence quenching using Facinicline (10 uM fac): 69.71
- YFP fluorescence quenching using TC-6987 (10 uM tc6987): −27.62
- YFP fluorescence quenching using CNL002 (30 uM CNL002): 64.93%
- YFP fluorescence quenching using AZD-0328 (30 uM azd0328): 60.61%
- YFP fluorescence quenching using Facinicline (30 uM fac): 61.44
- YFP fluorescence quenching using TC-6987 (500 uM tc6987): −24.22
- percent quench of YFP fluorescence, 30 nM TC-6683 (TC-6683 30 nM): −22.464%
- percent quench of YFP fluorescence, 300 nM TC-6683 (TC-6683 300 nM): −23.976%
- percent quench of YFP fluorescence, 3 uM TC-6683 (TC-6683 3 uM): −24.897%
- percent quench of YFP fluorescence, 30 uM TC-6683 (TC-6683 30 uM): −20.474%
- percent quench of YFP fluorescence, 100 uM TC-6683 (TC-6683 100 uM): −22.253%
- percent quench of YFP fluorescence, 10 uM ach (acetylcholine 10 uM): −11.3%
- percent quench of YFP fluorescence, 100 uM ach (acetylcholine 100 uM): −27.53%
- percent quench of YFP fluorescence, 1 mM ach (acetylcholine 1 mM): 2.84%
- percent quench of YFP fluorescence, 3 mM ach (acetylcholine 3 mM): 14.65%
